Holding throughout (assay): purified protein
Assay type in all cases: biochemical, Vitis vinifera

Substrate in series [1]: O=C(O)C1=C[C@@H](O)[C@@H](O)[C@H](O)C1
As to conditions: 2 mM NADP+, pH 9, 100 mM Bis-Tris Propane HCl, 30 °C.

Substrate in series [2]: NC(=O)c1ccc[n+]([C@@H]2O[C@H](COP(=O)(O)OP(=O)(O)OC[C@H]3O[C@@H](n4cnc5c(N)ncnc54)[C@H](OP(=O)(O)O)[C@@H]3O)[C@@H](O)[C@H]2O)c1
The note with it: 4 mM shikimate, pH 9, 100 mM Bis-Tris Propane HCl, 30 °C.

Substrate in series [3]: O=C(O)C1=CC(=O)[C@@H](O)[C@H](O)C1
The note with it: 0.4 mM NADPH, pH 7, 100 mM Bis-Tris Propane HCl, 30 °C, 3-DHS reduction, pH 7.0.

B1: VvSDH4 (Vitis vinifera) (protein)
chain: GARRNSTLICVPIMADSVDQMLGQIRKAKEVGGDLVEIRLDYLKNFSPRQDLQFLVKQSPLPTLVTYRPTWEGGQYDGDEGKRLDALRLAIELGADYIDVELQVAPEFINSIQGKTSGKVKIIVSSHNYQNTPSAEELGNLVARIQATGADIVKIATTALDITDCARIFQVLAHSQVPTIGIAMAERGLISRILSAKFGSYLTFGSLEAGVVSAPGQPTVKDLLDLYNFRQIGPDTKVHGVIGKPIGHSKSPHLYNSAFKSVGFNGIYLPLLVDSVKNFLATYSSPDFVGYSYTIPHKEDGLRCCDEIDPIAQAIGAISCMIRRPADGKLMGYNVDYLGAIAAIEEGLRASNGTTSVGSPLAGKLFVVIGAGGAGKALAYGGKEKGARVVVANRTFEKAKELASKVGGEAMTLAELENFHPEDGMILANTTSVGMKPNIDNTPLSKKALSRYSLVFDAIYTPKLTRLLREAQESGAIIVYGTEMFINQAFVQFERFTGLPAPKELIREVLVRNT
notes: partial cDNA lacking the first 17 aa (putative transit peptide); E. coli BL21(DE3); GST tag removed
Consider B1, for which, in the series “purified protein [1]”, the Km came to 146.8 ± 60 µM, the maximal velocity (Vmax) is 27.6 µmol/min/mg, the kcat amounted to 26.1 ± 4.97 s⁻¹ and the kcat/Km is 178000 M⁻¹ s⁻¹. In addition, in the series “purified protein [2]” (varied: cofactor), the Michaelis-Menten constant (Km) amounted to 53.8 ± 5.8 µM, the maximal velocity (Vmax) stood at 30 µmol/min/mg, the kcat came out at 28.9 ± 1.06 s⁻¹ and the kcat/Km is 537000 M⁻¹ s⁻¹.

B2: VvSDH1 (Vitis vinifera) (protein)
chain: MESGGMSKNSTLICVPIMGETIEKMVVDMSKAKTSGADLVEVRLDTLKRFNPRQDLEVLIRKCPLPTLFTYRPKWEGGQYEGDENSRRDALRLAMELGADYVDIELKVAHEFINSIHGRKPEKFKVIVSSHNYQNTPSVEDLGNLVVSIQATGADIVKIATTALEITDVARIFQITVHSQVPVIGLVMGERGLISRILCPKFSGYLTFGSLEPGIVSAPGQPTIKDLLNLYNFRQLGPDTKVFGVIGKPVSHSKSPHLYNEAFKSVGFNGVYVHLLVDDIAKFFHTYSAADFAGFSCTIPHKEAALKCCDEVSPVAKSIGAVNCIIRRPSDGKLFGYNTDYVGAISAIEDGLRDLHKISSTSGSPLAGKLFVVIGAGGAGKALAYGAKEKGARVVIANRTYARARELADAVGGDALSLADLNNFHPENGMILANTTSIGMQPKVDETPISKHALKYYSLVFDAIYTPKITRLLREAQESGATIVTGLEMFIGQAYEQFERFTGLPAPKELFKQFISNLQ
notes: E. coli BL21(DE3); GST tag removed after purification
Take B2: in “purified protein [1]” (pH 9.0), the Km turned out to be 90 ± 16 µM, the Vmax is 100 µmol/min/mg, the kcat stood at 94.5 ± 7.2 s⁻¹ and the catalytic efficiency (kcat/Km) came to 1.05e+06 M⁻¹ s⁻¹. In “purified protein [2]” (pH 9.0, varied: cofactor), the Km amounted to 214.7 ± 56.4 µM, the maximum rate (Vmax) turned out to be 254 µmol/min/mg, the turnover number (kcat) is 239 ± 26.3 s⁻¹ and the kcat/Km came out at 1.11e+06 M⁻¹ s⁻¹. In addition, in the series “purified protein [3]”, the Km stood at 156.9 ± 31.3 µM, the maximum rate (Vmax) turned out to be 102 µmol/min/mg, the catalytic constant (kcat) is 95.8 ± 10.2 s⁻¹ and the kcat/Km came to 611000 M⁻¹ s⁻¹.

B3: VvSDH3 (Vitis vinifera) (protein)
chain: MGSLPFTVSDLQTSVSGVRSNPTLLCTPLMGTTVEQMLTEMRKAKEIGADIVEIRLDCLRNFSPAQDLQILIKQSPLPTLVTYRPIWEGGQYEGDENKRQDALRLAMELGASYIDVELEVAHEFNNSIYGKKPQNFKVIVSSHNFHNTPSTEAIGNLVARIQASGADIVKIATTALDITDVARVLQVTVHSQVPTIAIVMGERGLISRLLSPKFGGYLTYGALEAGAISAPGQPTAKDLLDLYNFRLVKPDTKVYGIIGKPVGHSKSPLLFNAAFKKVGLNAVYVHLLVDDVEKFFNTYSAPDFISGCSCTIPHKEVAIKCMDTIDPIARKIGAINNIVRKPDGKLTAFNTDYIGAIEAIEDGLRESNGSSPAVGSPLAGKLFVVLGAGGAGKSLAYGAKEKGARVVVANRTFERAKDLADKVGGQALTLAEIENFHPEEGMILANTTSVGMKPKINDTPIPKHALKHYSLVFDAIYTPKDTRLLREAKESGKIIVYGTEMLIRQGFEQYKNFTGLPAPEELFRELMSKHA
notes: as for B2
As to B3, in “purified protein [1]” (pH 9.0), the Michaelis-Menten constant (Km) turned out to be 27.3 ± 10.4 µM, the Vmax amounted to 5.4 µmol/min/mg, the catalytic constant (kcat) is 5.16 ± 0.56 s⁻¹ and the kcat/Km is 189000 M⁻¹ s⁻¹. For the same protein, in “purified protein [2]” (pH 9.0, varied: cofactor), the Michaelis constant (Km) was 38.4 ± 11.9 µM, the maximum rate (Vmax) stood at 27 µmol/min/mg, the kcat was 26.1 ± 2.68 s⁻¹ and the kcat/Km amounted to 680000 M⁻¹ s⁻¹. In the series “purified protein [3]”, the Michaelis constant (Km) amounted to 46.3 ± 18.2 µM, the Vmax is 9 µmol/min/mg, the kcat turned out to be 8.62 ± 0.93 s⁻¹ and the catalytic efficiency (kcat/Km) was 186000 M⁻¹ s⁻¹.

By Km is commonly meant the substrate concentration at which the rate is half of its maximum. The term Vmax denotes the top rate of the reaction or transport when substrate is in excess. As usually defined, the kcat is the number of substrate molecules converted per active site and unit of time at saturation. As usually defined, the kcat/Km is the second-order rate constant that governs catalysis at low substrate concentration.

The values are drawn from PMC4892741, “Two shikimate dehydrogenases, VvSDH3 and VvSDH4, are involved in gallic acid biosynthesis in grapevine” (Journal of Experimental Botany, 2016).
